From paper PMC3757403

Target: de2-7EGFR (UniProt P00533)
Assay: non-reducing SDS-PAGE and Western blot of disulfide-bonded dimers; cells washed and lysed in RIPA buffer with 10 mM iodoacetamide; non-reducing Laemmli buffer; blot probed with mAb806

dimer as proportion of the total species: 25%
Substance: de2-7EGFR (from UniProt P00533 25-1210) (receptor)
